The values below come from the supplement of paper PMC9112550, “Optimization of the antimicrobial peptide Bac7 by deep mutational scanning” (BMC Biology, 2022).
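Also: peptides expressed intracellularly from a pBAD plasmid library in pooled LB shake-flask culture, induced with 0.3% L-arabinose, DNA abundance read by NGS, three biological replicates, DESeq2 with apeglm shrinkage.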

The test system of this data set is Escherichia coli TOP10. Nature of the data set: shrunken log2 fold change of peptide-encoding DNA abundance (4.5 h post-induction vs induction); higher = less antimicrobial activity (less host growth inhibition). The note with it: time post-induction: 4.5 h; library: site-saturation at positions 5, 18, 19, 20.
Consider RRIRTRPPRLPRPRPRPNRIPRP, for which the “shrunken log2 fold change” value is -0.294. Take RRIRWRPPRLPRPRPRPDGGPRP: the “shrunken log2 fold change” value was -0.0355. On to RRIRVRPPRLPRPRPRPITDPRP, for which the “shrunken log2 fold change” value is -0.069. The same measure for RRIRPRPPRLPRPRPRPYTSPRP: -0.261.

For the sequence RRIRCRPPRLPRPRPRPRFYPRP, the “shrunken log2 fold change” value is -0.234. The same measure for RRIRNRPPRLPRPRPRPMNEPRP: 0.0961. In the case of RRIRYRPPRLPRPRPRPNWAPRP, the “shrunken log2 fold change” value was -0.267. In the case of RRIRKRPPRLPRPRPRPHCKPRP, the “shrunken log2 fold change” value is -0.397. As to RRIRLRPPRLPRPRPRPQAHPRP, the “shrunken log2 fold change” value was -0.217. Take RRIRWRPPRLPRPRPRPYMHPRP: the “shrunken log2 fold change” value is -0.48.

For RRIRLRPPRLPRPRPRPIYWPRP, the “shrunken log2 fold change” value was -0.0187. The same measure for RRIRYRPPRLPRPRPRPREFPRP: 0.163. Consider RRIRWRPPRLPRPRPRPYWIPRP, for which the “shrunken log2 fold change” value was -0.81. The same measure for RRIRGRPPRLPRPRPRPCDGPRP: 0.123; for RRIRSRPPRLPRPRPRPMGYPRP: -0.0075; for RRIRVRPPRLPRPRPRPYFRPRP: -0.153. Regarding RRIRNRPPRLPRPRPRPCQMPRP, the “shrunken log2 fold change” value was -0.0139.

RRIRHRPPRLPRPRPRPEMMPRP: the “shrunken log2 fold change” value is -0.0229. The same measure for RRIRMRPPRLPRPRPRPRFHPRP: 0.142; for RRIRCRPPRLPRPRPRPSDAPRP: -0.0145. As for RRIRQRPPRLPRPRPRPTAIPRP, the “shrunken log2 fold change” value is -0.248. With RRIRERPPRLPRPRPRPVRDPRP, the “shrunken log2 fold change” value stood at 0.337. With RRIRHRPPRLPRPRPRPKFHPRP, the “shrunken log2 fold change” value was -0.429. Consider RRIRCRPPRLPRPRPRPQCFPRP, for which the “shrunken log2 fold change” value was -0.187.

With RRIRCRPPRLPRPRPRPRQWPRP, the “shrunken log2 fold change” value is -0.108. With RRIRWRPPRLPRPRPRPLCIPRP, the “shrunken log2 fold change” value is -0.275. The same measure for RRIRYRPPRLPRPRPRPVGYPRP: -0.152; for RRIRMRPPRLPRPRPRPARAPRP: 1.43; for RRIRRRPPRLPRPRPRPRINPRP: 0.125. Take RRIRFRPPRLPRPRPRPDENPRP: the “shrunken log2 fold change” value was -0.0759. Consider RRIRNRPPRLPRPRPRPWPWPRP, for which the “shrunken log2 fold change” value came to 0.0162.

Consider RRIRCRPPRLPRPRPRPAMPPRP, for which the “shrunken log2 fold change” value is -0.054. RRIRIRPPRLPRPRPRPDDPPRP: the “shrunken log2 fold change” value is -0.0328. Take RRIRYRPPRLPRPRPRPVYVPRP: the “shrunken log2 fold change” value is -0.37.

For RRIRRRPPRLPRPRPRPASEPRP, the “shrunken log2 fold change” value amounted to 0.182. On to RRIRQRPPRLPRPRPRPEAYPRP, for which the “shrunken log2 fold change” value was found to be 0.0335. For RRIRPRPPRLPRPRPRPTPYPRP, the “shrunken log2 fold change” value is -0.0196.

RRIRGRPPRLPRPRPRPKGPPRP: the “shrunken log2 fold change” value came out at 0.331. Then RRIRQRPPRLPRPRPRPPKDPRP, with 0.0238; and RRIRCRPPRLPRPRPRPVRLPRP, with 0.499; and RRIRTRPPRLPRPRPRPTDGPRP, with -0.0714. Regarding RRIRLRPPRLPRPRPRPTIKPRP, the “shrunken log2 fold change” value was -0.395. As for RRIRERPPRLPRPRPRPIDTPRP, the “shrunken log2 fold change” value was -0.113.

Regarding RRIRSRPPRLPRPRPRPFGLPRP, the “shrunken log2 fold change” value was -0.0988. With RRIRARPPRLPRPRPRPQIEPRP, the “shrunken log2 fold change” value was 0.234. Consider RRIRYRPPRLPRPRPRPQWPPRP, for which the “shrunken log2 fold change” value is -0.533. For the sequence RRIRSRPPRLPRPRPRPADAPRP, the “shrunken log2 fold change” value came to 0.0403. Regarding RRIRYRPPRLPRPRPRPTLNPRP, the “shrunken log2 fold change” value was -0.54. As to RRIRHRPPRLPRPRPRPQHQPRP, the “shrunken log2 fold change” value was -0.192.

With RRIRNRPPRLPRPRPRPFLNPRP, the “shrunken log2 fold change” value was -0.392. Take RRIRSRPPRLPRPRPRPQPDPRP: the “shrunken log2 fold change” value was -0.185. RRIRHRPPRLPRPRPRPGRRPRP: the “shrunken log2 fold change” value amounted to 0.525. As to RRIRRRPPRLPRPRPRPLCRPRP, the “shrunken log2 fold change” value was 0.224. The same measure for RRIRERPPRLPRPRPRPQGDPRP: -0.0405; for RRIRLRPPRLPRPRPRPIMYPRP: -0.16; for RRIRQRPPRLPRPRPRPPYKPRP: -0.166. RRIRCRPPRLPRPRPRPHCDPRP: the “shrunken log2 fold change” value is -0.579.

With RRIRYRPPRLPRPRPRPCVYPRP, the “shrunken log2 fold change” value was -0.197.

Consider RRIRCRPPRLPRPRPRPIVSPRP, for which the “shrunken log2 fold change” value is -0.506. As to RRIRHRPPRLPRPRPRPILNPRP, the “shrunken log2 fold change” value was -0.186. Regarding RRIRFRPPRLPRPRPRPKCSPRP, the “shrunken log2 fold change” value is -0.0194. As for RRIRERPPRLPRPRPRPPDPPRP, the “shrunken log2 fold change” value is 0.106. On to RRIRIRPPRLPRPRPRPKRTPRP, for which the “shrunken log2 fold change” value was -0.198. For the sequence RRIRFRPPRLPRPRPRPLPYPRP, the “shrunken log2 fold change” value is -0.101.

As to RRIRKRPPRLPRPRPRPELAPRP, the “shrunken log2 fold change” value amounted to 2.83. Take RRIRVRPPRLPRPRPRPSCEPRP: the “shrunken log2 fold change” value was -0.303. For the sequence RRIRLRPPRLPRPRPRPANSPRP, the “shrunken log2 fold change” value was -0.202.

For RRIRMRPPRLPRPRPRPMFCPRP, the “shrunken log2 fold change” value was -0.0875. Regarding RRIRWRPPRLPRPRPRPMGGPRP, the “shrunken log2 fold change” value was found to be 0.116.

On to RRIRRRPPRLPRPRPRPTSSPRP, for which the “shrunken log2 fold change” value turned out to be 0.04. Regarding RRIRDRPPRLPRPRPRPVQAPRP, the “shrunken log2 fold change” value amounted to 0.0233. As to RRIRYRPPRLPRPRPRPVREPRP, the “shrunken log2 fold change” value stood at 0.484. Consider RRIRGRPPRLPRPRPRPAAQPRP, for which the “shrunken log2 fold change” value was found to be 1.12. Consider RRIRCRPPRLPRPRPRPPYTPRP, for which the “shrunken log2 fold change” value was -0.343. For the sequence RRIRCRPPRLPRPRPRPCGKPRP, the “shrunken log2 fold change” value is -0.0972.

Take RRIRTRPPRLPRPRPRPEDAPRP: the “shrunken log2 fold change” value turned out to be 0.0648. As for RRIRYRPPRLPRPRPRPSLKPRP, the “shrunken log2 fold change” value is -0.316. For the sequence RRIRGRPPRLPRPRPRPSQYPRP, the “shrunken log2 fold change” value was -0.034. Regarding RRIRSRPPRLPRPRPRPSHPPRP, the “shrunken log2 fold change” value is -0.277. For RRIRSRPPRLPRPRPRPGESPRP, the “shrunken log2 fold change” value turned out to be 0.249.

For RRIRKRPPRLPRPRPRPCAAPRP, the “shrunken log2 fold change” value was 0.421.

As to RRIRLRPPRLPRPRPRPWHEPRP, the “shrunken log2 fold change” value was determined as 0.0149. In the case of RRIRTRPPRLPRPRPRPFMNPRP, the “shrunken log2 fold change” value was -0.787.

For RRIRTRPPRLPRPRPRPTFIPRP, the “shrunken log2 fold change” value was -0.39.

Regarding RRIRCRPPRLPRPRPRPDDHPRP, the “shrunken log2 fold change” value is -0.338.

Consider RRIRGRPPRLPRPRPRPMSWPRP, for which the “shrunken log2 fold change” value was 0.252. The same measure for RRIRSRPPRLPRPRPRPDCQPRP: 0.117; for RRIRSRPPRLPRPRPRPTMSPRP: -0.0133. Then RRIRLRPPRLPRPRPRPYYEPRP, with -0.493; and RRIRMRPPRLPRPRPRPFRMPRP, with 0.00199; and RRIRIRPPRLPRPRPRPYCVPRP, with -0.207. Then RRIRPRPPRLPRPRPRPRRYPRP, with -0.0175. In the case of RRIRLRPPRLPRPRPRPIPFPRP, the “shrunken log2 fold change” value was -0.0242. Consider RRIRNRPPRLPRPRPRPQFHPRP, for which the “shrunken log2 fold change” value is -0.28. With RRIRSRPPRLPRPRPRPWYHPRP, the “shrunken log2 fold change” value is -0.45. As for RRIRCRPPRLPRPRPRPYFLPRP, the “shrunken log2 fold change” value is -0.823.

In the case of RRIRHRPPRLPRPRPRPDYWPRP, the “shrunken log2 fold change” value is -0.187. As for RRIRCRPPRLPRPRPRPCNLPRP, the “shrunken log2 fold change” value was -0.0646. Consider RRIRERPPRLPRPRPRPTYFPRP, for which the “shrunken log2 fold change” value is -0.475.

On to RRIRTRPPRLPRPRPRPRGIPRP, for which the “shrunken log2 fold change” value is -0.0284. With RRIRPRPPRLPRPRPRPQLMPRP, the “shrunken log2 fold change” value is -0.0192. Then RRIRNRPPRLPRPRPRPCLRPRP, with -0.0159; and RRIRWRPPRLPRPRPRPYCMPRP, with -0.401; and RRIRARPPRLPRPRPRPAECPRP, with 0.041.

In the case of RRIRSRPPRLPRPRPRPMCGPRP, the “shrunken log2 fold change” value was -0.145. RRIRFRPPRLPRPRPRPKWNPRP: the “shrunken log2 fold change” value was -0.217.

Consider RRIRARPPRLPRPRPRPGFVPRP, for which the “shrunken log2 fold change” value amounted to 0.42. Regarding RRIRMRPPRLPRPRPRPYCFPRP, the “shrunken log2 fold change” value was -0.28.

On to RRIRARPPRLPRPRPRPCCRPRP, for which the “shrunken log2 fold change” value was 0.406. Regarding RRIRDRPPRLPRPRPRPYCGPRP, the “shrunken log2 fold change” value came out at 0.0637. With RRIRGRPPRLPRPRPRPMWAPRP, the “shrunken log2 fold change” value worked out at 0.925. For RRIRARPPRLPRPRPRPKAWPRP, the “shrunken log2 fold change” value came to 0.146.

For RRIRARPPRLPRPRPRPRGEPRP, the “shrunken log2 fold change” value worked out at 0.613. As for RRIRIRPPRLPRPRPRPANDPRP, the “shrunken log2 fold change” value is -0.135. Take RRIRRRPPRLPRPRPRPYSKPRP: the “shrunken log2 fold change” value is -0.129. On to RRIRFRPPRLPRPRPRPYPDPRP, for which the “shrunken log2 fold change” value stood at 0.0764. The same measure for RRIRMRPPRLPRPRPRPACMPRP: 0.64. As to RRIRGRPPRLPRPRPRPWITPRP, the “shrunken log2 fold change” value was -0.204.

With RRIRHRPPRLPRPRPRPFPKPRP, the “shrunken log2 fold change” value was found to be 0.0904. For the sequence RRIRLRPPRLPRPRPRPVMWPRP, the “shrunken log2 fold change” value turned out to be 0.283. On to RRIRFRPPRLPRPRPRPNLQPRP, for which the “shrunken log2 fold change” value is -0.264. As to RRIRWRPPRLPRPRPRPGGGPRP, the “shrunken log2 fold change” value was found to be 0.953.

With RRIRKRPPRLPRPRPRPCWYPRP, the “shrunken log2 fold change” value is -0.139.

Consider RRIRRRPPRLPRPRPRPKQEPRP, for which the “shrunken log2 fold change” value is 0.0674. As for RRIRARPPRLPRPRPRPGNLPRP, the “shrunken log2 fold change” value is -0.232.
